In data set [1] the target is Cmr-α ribonucleoprotein complex (RNP) (S. islandicus | S. islandicus (endogenous in the expression strain)).
In data set [2] the target is T1, AcrIIIB2 (Sulfolobus islandicus rod-shaped virus …, UniProt A0A1B3SN31 1-149).
T1 sequence: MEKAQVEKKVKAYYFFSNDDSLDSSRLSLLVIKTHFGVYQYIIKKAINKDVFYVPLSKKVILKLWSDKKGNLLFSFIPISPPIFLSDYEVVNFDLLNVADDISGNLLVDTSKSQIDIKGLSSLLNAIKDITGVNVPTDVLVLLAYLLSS
Nature of the data set: EMSA; 10 mM EDTA; no difference in affinity among RNAs; EMSA: 20 mM MES pH 6.0, 10 mM EDTA, 250 nM FAM substrate, 70 C for 5 min (10 min stated for RNP in Methods); 12% native PAGE in 0.5x TB. To be noted: protein: recombinant, tags: C-terminal 6xHis (pET30a). For orientation: In EMSA bound probe runs differently from free probe, usually more slowly.

For data set [3], the target named is T1, AcrIIIB2. The experiment in a line: EMSA; 250 nM RNA, 0-15 uM protein, 10 mM EDTA, 70 C; also binds at lower temperature; EMSA: 20 mM MES pH 6.0, 10 mM EDTA, 250 nM FAM substrate, 70 C for 5 min (10 min stated for RNP in Methods); 12% native PAGE in 0.5x TB. Conditions: protein: recombinant; tags: C-terminal 6xHis (pET30a); label: 5'-FAM.

Data on five molecules can be found in publication PMC10681719, “An archaeal virus-encoded anti-CRISPR protein inhibits type III-B immunity by inhibiting Cas RNP complex turnover”.

With His-tagged AcrIIIB2 (natural protein), in data set [1], the cis RNase activity of Cmr-α RNP (100 nM) on 250 nM labeled target RNA: uncleaved target RNA, AcrIIIB2 to Cmr-α RNP molar ratios 0 to 30 is 80%; the trans ssDNase activity of Cmr-α RNP (100 nM) with 300 nM target RNA and 300 nM labeled ssDNA: uncleaved ssDNA, AcrIIIB2 to Cmr-α RNP molar ratios 0 to 30 stood at 15%.

CCAAGCUAAUCUACUAUAGAAUUGAAAGCU (ssRNA) [RNA2]: the binding result in data set [2] (label: 5'-FAM) is “binds”.

For GUGACAGCAUCUCAUACUAGACAG (ssRNA) [RNA4], the binding result in data set [2] (label: 3'-FAM) is “binds”.

Take AGUCUCGUAACCAGUCCAAGAACAGAAACCAGUCAAAUGACCG (ssRNA) [RNA1 (target RNA, 43 nt)]: the binding result in data set [3] is “binds”.

As to UCAAAGCUUAGAUACCCUGGA (ssRNA) [RNA3], the binding result in data set [2] (label: 5'-FAM) is on record as “binds”.
